Reference: patent US20200087367A1 (ACCELERON PHARMA, published 2020)

What was measured:
Experiment in all cases: SPR, captured hENG-hFc, soluble BMP10; '-' = Binding undetectable
[1] = target: T1, hENG(26-329)-hFc (human, UniProt P17813 26-329)
T1 construct: HEK 293, purified; not shown: linker and human IgG1 Fc domain
T1 sequence: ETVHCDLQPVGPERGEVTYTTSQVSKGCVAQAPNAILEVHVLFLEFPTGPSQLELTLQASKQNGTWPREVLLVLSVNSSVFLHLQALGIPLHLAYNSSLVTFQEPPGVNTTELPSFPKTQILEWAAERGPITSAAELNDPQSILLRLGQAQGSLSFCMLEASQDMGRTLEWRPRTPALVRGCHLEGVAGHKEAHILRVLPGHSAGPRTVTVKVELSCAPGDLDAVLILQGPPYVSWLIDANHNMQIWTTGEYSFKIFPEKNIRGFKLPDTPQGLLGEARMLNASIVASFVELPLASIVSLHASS
Experimental: (§1) SPR methodology was used to screen these hENG-hFc protein variants for high-affinity binding to human BMP9 and BMP10. In these experiments, captured hENG-hFc proteins were exposed to soluble BMP9 or BMP10 at 100 nM each.

[2] = target: T2, hENG(166-346)-hFc (human, UniProt P17813 166-346)
T2 construct: HEK 293, purified; not shown: linker and human IgG1 Fc domain
T2 sequence: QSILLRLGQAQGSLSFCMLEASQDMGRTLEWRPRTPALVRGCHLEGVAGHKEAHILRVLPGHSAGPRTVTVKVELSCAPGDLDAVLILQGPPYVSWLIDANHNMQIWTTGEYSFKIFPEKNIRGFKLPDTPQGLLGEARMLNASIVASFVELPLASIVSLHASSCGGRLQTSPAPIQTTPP
Experimental: as §1

[3] = target: T3, hENG(458-581)-hFc (human, UniProt P17813 458-581)
T3 construct: Expressed in COS cells, not purified; not shown: linker and human IgG1 Fc domain
T3 sequence: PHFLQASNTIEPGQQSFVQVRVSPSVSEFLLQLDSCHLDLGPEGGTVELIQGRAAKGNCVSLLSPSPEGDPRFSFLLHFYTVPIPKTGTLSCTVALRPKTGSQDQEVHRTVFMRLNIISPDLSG
Experimental: as §1

binding result [1]: no binding (tested: 100 nM)
binding result [2]: no binding (tested: 100 nM)
binding result [3]: no binding (tested: 100 nM)
B1: BMP10 (ligand)
chain: NAKGNYCKRTPLYIDFKEIGWDSWIIAPPGYEAYECRGVCNYPLAEHLTPTKHAIIQALVHLKNSQKASKACCVPTKLEPISILYLDKGVVTYKFKYEGMAVSECGCR
notes: also called hBMP-10; hBMP10
